According to the Human Domainome abundance scans (Beltran et al. 2025):

B1: Myocardin-related transcription factor A, residues 341 to 383; numbered along this chain, Q969V6 (parent)
chain: GALPANLDDMKVAELKQELKLRSLPVSGTKTELIERLRAYQDQ
B2: Gamma-crystallin D, residues 90 to 170; numbered along this chain, P07320 (parent)
chain: IRLYEREDYRGQMIEFTEDCSCLQDRFRFNEIHSLNVLEGSWVLYELSNYRGRQYLLMPGDYRRYQDWGATNARVGSLRRV

Variants of: B1
Assay: abundance fitness (aPCA) (normalised: wild type 0, dead -1); higher = more abundant; growth selection in yeast, the domain comes from the species named
Conditions: Homo sapiens

Abundance fitness, by site and new letter:
L37: T -0.416, V -0.3, R -0.462, G -0.303, S -0.419, Q -0.631, A -0.435, E -0.504, M -0.165, D -0.298, K -0.455, W -0.403, C -0.404, N -0.327
R36: K -0.234, P -0.066, G -0.188, A -0.128, S -0.291, N -0.356, C -0.128, W -0.73, M -0.395, L -0.416, V -0.339, T -0.113, Q -0.201, E -0.529, I -0.728
A39: S 0.221, W 0.074, E 0.411, I -0.034, Q 0.205, V 0.187, F -0.127, Y 0.129, K 0.284, N 0.259, P 0.168, L 0.168
D42: C 0.045, S -0.017, K 0.022, A 0.205, W -0.31, R -0.234, P 0.059, E 0.137, H -0.23, Q -0.087, I -0.538, N 0.186, T 0.037, L -0.081
Q43: V 0.334, R 0.567, E 0.357, S -0.029, I 0.042, W 0.208, T 0.164, C -0.037, H -0.01
L33: P -0.403, V -0.249, Q -0.128, T -0.283, G -0.224, K -0.315, R -0.617, S -0.067, A -0.261, M 0.046, N 0.592
I34: E -0.151, M -0.144, D -0.546, G -0.305, C -0.139, H -0.186, L -0.146, Q 0.116, W -0.363, A -0.187, K -0.031, V -0.21, R -0.146, Y 0.017, T -0.151
G28: H -1.18, L -1.06, M -0.957, S -0.85, V -1.38, Y -0.626, K -0.862, W -1.03, Q -0.659, T -1.56, P -1.13
K30: V -0.509, E -0.269, G -0.494, D -0.478, A -0.403, H -0.217, P -0.242, S -0.231, Q -0.092, W -0.6, N -0.343, R 0.024, M -0.332, I -0.158, T -0.091, F -0.463
E35: W -0.19, Y 0.166, S 0.109, V -0.171, L 0.026, Q 0.398, F -0.242, R -0.047, G 0.041, K 0.035, P -0.505, I -0.174, A 0.23, T -0.173
Y40: T 0.08, W 0.178, E 0.179, M 0.02, V 0.179, A 0.247, L -0.062, H 0.228, Q -0.189, S 0.246, F 0.12, K -0.103, N 0.127, C 0.127, D 0.308, G 0.202, R 0.042, P 0.192
T29: Y -0.44, I -0.362, S -0.084, K -0.092, V -0.26, L -0.376, R -0.196, C -0.198, D -0.147, E 0.009, W -0.601, Q 0.157, M -0.447, H -0.142
E32: W -1.15, Y -0.669, N -0.357, C -0.17, R -0.319, T -0.143, A -0.053, M -0.239, H -0.375, P -0.533, K -0.198, Q -0.038, G -0.606, V -0.093, I -0.149, L -0.472
T31: L -0.145, K -0.141, Q -0.138, P -0.074, S -0.061, G -0.011, H -0.129, M -0.089, E 0.085, R 0.012, D 0.005, N -0.332, W -0.246, Y -0.193, A 0.098, I 0.092, V -0.035
Q41: R 0.089, L 0.069, V 0.055, K 0.202, I -0.021, C 0.061, N 0.18, Y -0.307, M 0.107, W 0.083, P 0.066, S 0.081, H -0.125, F 0.222, G 0.262
R38: C -0.301, A 0.2, E 0.074, P -0.107, H -0.201, I -0.086, V -0.152, W -0.236, D -0.588, S -0.126, M -0.052, T -0.233, L -0.224, G -0.047, F -0.626, Q -0.24, K -0.138, Y -0.053

Variants of: B2
Assay: as above
Conditions: Homo sapiens

Abundance fitness, by site and new letter:
Y9: E 0.082, G 0.06, D -0.076, C 0.194, I 0.112, H 0.19, F 0.104
E7: G -0.095, C -0.333, A 0.001, V -0.04, L -0.031, R -0.043, M -0.029, W 0.045, Y -0.498, S 0.069, Q -0.016, I -0.107, K 0.103, F -0.148
I1: V -0.094, G -0.344, T -0.37, N 0.12, M -0.021, L -0.1, A 0.139, F -0.462, W -1
R6: C 0.069, P -1.02, K -0.027, V -0.035, A 0.044, Q -0.066, F -0.262, L 0.012, M -0.042, N 0.153, G -0.011, I -0.047, H -0.124, E -0.018, Y -0.092, T 0.005, D -0.172, S -0.01
R2: V -0.146, L -0.162, T -0.105
D8: K 0.111, R 0.025, H -0.086, I -0.152, C 0.05, P 0.026, N -0.342, L 0.025, A -0.079, E 0.015, T -0.016, G -0.004, W -0.153, V -0.049, S -0.03, Q 0.097, M -0.006, F 0.085
Y4: G -0.683, N 0.02, R -0.22, E -0.881, W -0.192, D 0.074, C 0.222, H 0.219, V -0.82, A -0.472, L -0.646
E5: Q -0.013, D -0.013, H -0.176, G -0.025, Y 0.167, S 0.046, N -0.096, C -0.179, A -0.086, V 0.053, F 0.002, K 0.112, T -0.146, P 0.027, M 0.051, R 0.023, W 0.154, I 0.079
L3: P -1, R -1.02, F -0.012, T -0.239, V 0.076, G -0.131, S 0.122
